In assay [1] the test system is B16 murine melanoma cells. The assay is described as follows: Total melanin synthesis in mouse melanoma cells. It is filed as cell-based. Conditions: 72 h incubation. How it is done: B16 murine melanoma cells, which are highly responsive towards stimulation with alpha-melanocyte stimulating hormone (alpha-MSH), were grown in Dulbecco’s modified eagle medium (DMEM) with 1 g/L glucose supplemented with 3 g/L glucose, 2 mM L-glutamine, 50 U/mL Penicillin, 50 µg/mL Streptomycin, and 10% fetal calf serum. They were kept at 37 °C in a 5% CO2 atmosphere. Cells were grown for 24 h and then medium was replaced with medium containing the test or reference (NDP-alpha-MSH) compounds. After 72 h, total (intracellular and extracellular) melanin content was determined by absorbance spectroscopy at 405 nm. The results were quantified against a melanin standard curve.
Figure 1 Total melanin synthesis in mouse melanoma cells stimulated with MC1R-agonist peptides. MC1R-agonist peptides were incubated at various concentrations together with the near confluent mouse melanoma cell line B16F10. NDP-alpha-MSH at 100 nM was used as the reference and set to 100% melanin (red line). Error bars represent standard error of the mean of three experiments.

In assay [2] the target is T1, human recombinant MC1 receptor (Homo sapiens, UniProt Q01726).
T1 construct: host or cells: CHO-K1
The assay is described as follows: MC1R activation, cAMP HTRF assay in CHO-K1 cells. Format: cell-based. How it is done: MCR-activation assays were performed by means of a cAMP HTRF (homogeneous time resolved fluorescence) assay for Gs-coupled receptors (cAMP Gs dynamic kit, Cisbio bioassays, 62AM4PEC). CHO-K1 cells expressing human recombinant MC1 receptor (EuroscreenFast, Gosselies, Belgium) (or MC2R, MC3R, MC4R, MC5R) were grown prior to the test in media without antibiotic. They were detached by gentle flushing with PBS-EDTA (5 mM EDTA), recovered by centrifugation, and resuspended in assay buffer (5 mM KCl, 1.25 mM MgSO4, 124 mM NaCl, 25 mM HEPES, 13.3 mM Glucose, 1.25 mM KH2PO4, 1.45 mM CaCl2, 0.5 g/L BSA, supplemented with 1 mM IBMX). Dose response curves were performed in parallel with the reference compounds. For agonist test (96-well), 12 µL of cells were mixed with 12 µL of the test compound diluted at increasing concentrations in assay buffer, and then incubated for 30 min at room temperature. After addition of the lysis buffer and 1 h incubation, fluorescence signal was measured, according to the manufacturer’s specifications, with the homogeneous time resolved fluorescence (HTRF) kit.

The target in assay [3] is Melanocortin-1 receptor (MC1R), human recombinant, in CHO-K1 cells (human) (UniProt Q01726).
The subject of assay [4] is human abdominal skin ex vivo. In words: Stimulation of pigmentation in human abdominal skin ex vivo (Fontana-Masson melanin quantification). It is filed as cell-based. As to conditions: 200 µM peptide, topical, six days. How it is done: Following declaration of Helsinki principles (DoH-Oct2013, World Medical Association, Ferney-Voltaire, France), human skin samples were obtained from elective plastic surgery after informed consent was obtained. For the two experiments shown in Figure 2, Figure 3 and Figure 4, we had one person with an individual topology angle (ITA°) of 18, and one person with an ITA° of 39 [69]. The skin samples were cut in pieces of 8 × 3 mm and cultured up to day 6. Skin samples were cultured in an air–liquid interface in a perforated ring of stainless steel in contact with culture medium (modified Williams’ E medium). The culture medium was renewed every three days (i.e., day 0–3). Compounds were added daily in DMSO at 4 µL volume. At day 6, the skin samples were fixed in formalin, embedded in paraplast, and cut at the microtome for histochemical staining and consequent image analysis. Six skin biopsies were used for each single treatment.
Two skin biopsies for each treatment were weighed and, in each case, reduced in the dermal portion, in order to have approximately the same weight for all of them. Samples were then washed and processed with methylthiazolyldiphenyl-tetrazolium bromide (MTT). The color intensity, that is directly proportional to skin vitality, was measured with a plate reader at a wavelength of 570 nm. For melanin quantification, skin sections were stained with a modified Fontana-Masson stain that dyes melanin argentaffin granules in black/dark grey. The amount of melanin present in each slide was evaluated by estimating grey intensity and distribution within the sections using ImageJ application (NIH-USA). Two slides of each skin sample were processed by image acquisition and related analysis (i.e., 12 images for each treatment).
Figure 2 Stimulation of pigmentation by MC1R-agonist peptides ex vivo. Melanin was quantified on skin sections using ImageJ software (NIH, USA). Human abdominal skin was topically treated with peptides at various concentrations for six days. * p < 0.05 vs vehicle by unpaired Student’s t-test. […]

In assay [5] the target is Melanin-concentrating hormone receptor MCH2R, human (human) (UniProt Q969V1).
A further assay has as its target Melatonin receptor MT1R (UniProt P48039).
In assay [6] the target is Endothelin B-receptor (ETBR), human (human) (UniProt P24530).
Assay [7] has as its target Melanocortin-2 receptor (MC2R), recombinant, in CHO-K1 cells (human) (UniProt Q01718).
For assay [8], the target named is Opioid receptor OP1R (human delta opioid receptor) (human) (UniProt P41143).
The target in assay [9] is Melanocortin-5 receptor (MC5R), recombinant, in CHO-K1 cells (human) (UniProt P33032).
The next assay deals with T2, Melatonin receptor MT2R (UniProt P49286).
T2 sequence: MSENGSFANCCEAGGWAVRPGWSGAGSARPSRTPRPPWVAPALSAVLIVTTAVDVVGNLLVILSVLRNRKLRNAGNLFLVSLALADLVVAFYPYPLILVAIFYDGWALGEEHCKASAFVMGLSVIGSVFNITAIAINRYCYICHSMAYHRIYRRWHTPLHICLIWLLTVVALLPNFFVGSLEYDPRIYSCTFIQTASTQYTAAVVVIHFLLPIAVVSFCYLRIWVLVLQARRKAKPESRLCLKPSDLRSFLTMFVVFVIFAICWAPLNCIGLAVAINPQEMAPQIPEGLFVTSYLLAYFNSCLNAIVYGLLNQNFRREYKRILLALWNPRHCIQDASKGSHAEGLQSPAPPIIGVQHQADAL

Assay [10] addresses Opioid receptor OP3R (human mu opioid receptor) (human) (UniProt P35372).
The target in assay [11] is Melanocortin-3 receptor (MC3R), recombinant, in CHO-K1 cells (human) (UniProt P41968).
Assay [12] concerns the target Melanocortin-4 receptor (MC4R), recombinant, in CHO-K1 cells (human) (UniProt P32245).
The target in assay [13] is Serotonin receptor 5-HT2AR, human (human) (UniProt P28223).
For assay [14], the target named is Opioid receptor OP2R (human kappa opioid receptor) (human) (UniProt P41145).
Assay [15] concerns the target Melanin-concentrating hormone receptor MCH1R, human (human) (UniProt Q99705).

Where a SMILES comes first, the peptide text is derived from it. [ ]: non-standard residue; d: D form. The star is where a group is joined. Gly(N(CH2)2(3-indolyl)) = O=C(O)CNCCc1c[nH]c2ccccc12; N(indol-3-ylmethyl)Gly = O=C(O)CNCc1c[nH]c2ccccc12; 2Nal = N[C@@H](Cc1ccc2ccccc2c1)C(=O)O; d2Nal = N[C@H](Cc1ccc2ccccc2c1)C(=O)O; Dab = NCC[C@H](N)C(=O)O; Bz = O=C(c1ccccc1)*; NPr2 = CCCN(CCC)* Some results are limits rather than exact numbers.

This is an account of results in publication PMC6940745 (International Journal of Molecular Sciences, 2019).

T1 sequence (Q01726 whole entry): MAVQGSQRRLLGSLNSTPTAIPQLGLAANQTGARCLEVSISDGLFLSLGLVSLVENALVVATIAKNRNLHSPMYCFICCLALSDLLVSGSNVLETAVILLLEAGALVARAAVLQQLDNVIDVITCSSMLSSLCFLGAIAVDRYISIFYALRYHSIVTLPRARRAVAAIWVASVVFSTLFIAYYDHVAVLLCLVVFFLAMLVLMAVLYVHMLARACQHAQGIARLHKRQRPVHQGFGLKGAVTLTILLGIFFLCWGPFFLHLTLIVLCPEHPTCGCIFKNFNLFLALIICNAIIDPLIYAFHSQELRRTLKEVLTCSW
Chain of Melanocortin-1 receptor (MC1R), human recombinant, in CHO-K1 cells (human) (Q01726 whole entry): as above
Chain of Melanocortin-3 receptor (MC3R), recombinant, in CHO-K1 cells (human) (P41968 whole entry): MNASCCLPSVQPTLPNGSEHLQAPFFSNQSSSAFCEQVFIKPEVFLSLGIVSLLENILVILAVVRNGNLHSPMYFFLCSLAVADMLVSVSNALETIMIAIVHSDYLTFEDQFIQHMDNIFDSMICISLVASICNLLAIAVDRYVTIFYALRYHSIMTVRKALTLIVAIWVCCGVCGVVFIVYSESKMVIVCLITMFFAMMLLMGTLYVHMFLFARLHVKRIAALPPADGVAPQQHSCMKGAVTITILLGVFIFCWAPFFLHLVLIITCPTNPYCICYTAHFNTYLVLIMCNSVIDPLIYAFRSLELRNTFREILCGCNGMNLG
Chain of Melanocortin-4 receptor (MC4R), recombinant, in CHO-K1 cells (human) (P32245 whole entry): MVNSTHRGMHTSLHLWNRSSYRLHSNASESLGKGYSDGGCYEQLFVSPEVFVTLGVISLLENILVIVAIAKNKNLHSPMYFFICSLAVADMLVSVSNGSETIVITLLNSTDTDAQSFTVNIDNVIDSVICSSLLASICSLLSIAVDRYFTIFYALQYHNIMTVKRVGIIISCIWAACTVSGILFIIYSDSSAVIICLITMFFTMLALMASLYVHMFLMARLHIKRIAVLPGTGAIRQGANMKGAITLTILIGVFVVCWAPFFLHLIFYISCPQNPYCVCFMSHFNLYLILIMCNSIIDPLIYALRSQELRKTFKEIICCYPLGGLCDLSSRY
Chain of Melanocortin-2 receptor (MC2R), recombinant, in CHO-K1 cells (human) (Q01718 whole entry): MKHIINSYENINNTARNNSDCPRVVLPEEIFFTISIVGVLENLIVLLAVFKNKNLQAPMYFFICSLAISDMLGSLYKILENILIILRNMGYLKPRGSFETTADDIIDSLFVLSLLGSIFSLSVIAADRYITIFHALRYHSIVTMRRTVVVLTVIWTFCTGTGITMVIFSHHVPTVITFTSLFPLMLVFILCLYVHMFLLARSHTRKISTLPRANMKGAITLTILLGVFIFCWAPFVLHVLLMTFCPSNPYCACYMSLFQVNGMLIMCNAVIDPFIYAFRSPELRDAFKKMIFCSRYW
Chain of Melanin-concentrating hormone receptor MCH2R, human (human) (Q969V1 whole entry): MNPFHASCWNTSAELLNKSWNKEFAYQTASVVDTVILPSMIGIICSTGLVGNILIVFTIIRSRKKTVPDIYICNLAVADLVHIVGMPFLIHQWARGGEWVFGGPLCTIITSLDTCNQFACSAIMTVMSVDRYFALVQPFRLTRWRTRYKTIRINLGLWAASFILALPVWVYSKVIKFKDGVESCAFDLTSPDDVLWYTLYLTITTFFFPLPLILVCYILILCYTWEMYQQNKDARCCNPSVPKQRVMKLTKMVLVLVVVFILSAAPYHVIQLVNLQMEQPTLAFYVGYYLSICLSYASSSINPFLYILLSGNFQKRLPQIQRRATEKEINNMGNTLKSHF
Chain of Melanocortin-5 receptor (MC5R), recombinant, in CHO-K1 cells (human) (P33032 whole entry): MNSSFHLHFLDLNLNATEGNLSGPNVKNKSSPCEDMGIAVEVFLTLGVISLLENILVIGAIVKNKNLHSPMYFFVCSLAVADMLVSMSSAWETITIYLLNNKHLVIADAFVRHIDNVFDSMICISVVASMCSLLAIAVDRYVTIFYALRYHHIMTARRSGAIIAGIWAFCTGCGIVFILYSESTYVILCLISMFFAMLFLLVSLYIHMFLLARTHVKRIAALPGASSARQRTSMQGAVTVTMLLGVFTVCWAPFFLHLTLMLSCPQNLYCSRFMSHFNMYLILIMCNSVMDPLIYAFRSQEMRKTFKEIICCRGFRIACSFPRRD
Chain of Endothelin B-receptor (ETBR), human (human) (P24530 27-442): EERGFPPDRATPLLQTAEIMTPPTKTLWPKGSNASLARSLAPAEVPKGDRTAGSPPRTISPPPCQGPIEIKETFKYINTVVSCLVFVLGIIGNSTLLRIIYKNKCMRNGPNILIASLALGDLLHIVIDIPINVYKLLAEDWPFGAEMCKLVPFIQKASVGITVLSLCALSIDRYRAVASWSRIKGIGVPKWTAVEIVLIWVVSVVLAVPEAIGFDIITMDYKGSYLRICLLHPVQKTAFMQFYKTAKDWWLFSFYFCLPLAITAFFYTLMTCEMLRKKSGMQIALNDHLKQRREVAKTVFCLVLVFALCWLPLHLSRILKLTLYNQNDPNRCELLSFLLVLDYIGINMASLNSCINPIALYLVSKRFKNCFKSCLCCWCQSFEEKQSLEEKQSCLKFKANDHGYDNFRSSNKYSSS
Chain of Melanin-concentrating hormone receptor MCH1R, human (human) (Q99705 whole entry): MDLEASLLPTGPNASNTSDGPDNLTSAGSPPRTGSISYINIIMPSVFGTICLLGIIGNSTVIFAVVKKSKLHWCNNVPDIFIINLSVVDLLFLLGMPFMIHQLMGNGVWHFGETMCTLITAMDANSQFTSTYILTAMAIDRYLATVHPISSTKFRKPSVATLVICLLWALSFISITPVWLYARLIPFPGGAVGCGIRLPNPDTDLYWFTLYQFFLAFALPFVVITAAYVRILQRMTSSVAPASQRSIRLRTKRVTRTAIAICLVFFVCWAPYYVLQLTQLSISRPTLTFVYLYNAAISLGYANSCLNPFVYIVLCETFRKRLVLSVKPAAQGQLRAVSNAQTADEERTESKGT
Chain of Melatonin receptor MT1R (P48039 whole entry): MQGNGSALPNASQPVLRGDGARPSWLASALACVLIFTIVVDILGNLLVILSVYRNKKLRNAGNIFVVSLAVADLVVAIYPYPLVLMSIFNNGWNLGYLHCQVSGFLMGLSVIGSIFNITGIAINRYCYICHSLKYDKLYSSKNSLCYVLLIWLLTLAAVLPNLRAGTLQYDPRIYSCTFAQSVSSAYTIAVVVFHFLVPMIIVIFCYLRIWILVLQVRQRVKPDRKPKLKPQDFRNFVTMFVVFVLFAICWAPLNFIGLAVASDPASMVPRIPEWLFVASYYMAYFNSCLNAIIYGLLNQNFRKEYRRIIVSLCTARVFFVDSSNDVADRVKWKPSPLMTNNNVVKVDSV

Consider `N=C(N)NCCC[C@H](NC(=O)[C@@H](Cc1ccccc1)NC(=O)[C@H](Cc1c[nH]cn1)NC(=O)CNC(=O)c1ccccc1)C(=O)N(CCc1c[nH]c2ccccc12)CC(N)=O` [Peptide 7] (Bz-GH[dF]R[Gly(N(CH2)2(3-indolyl))]-NH2), for which the “Concentration at which maximal melanin synthesis activity comparable to 100 nM NDP-alpha-MSH is reached” value in assay [1] was over 111 nM.
The EC50 is the concentration that produces a half-maximal response. For the molecule `NCC[C@H](NC(=O)[C@@H](Cc1ccccc1)NC(=O)[C@H](Cc1c[nH]cn1)NC(=O)CNC(=O)c1ccccc1)C(=O)N[C@@H](Cc1c[nH]c2ccccc12)C(N)=O` [Peptide 8] (Bz-GH[dF][Dab]W-NH2), the “Concentration at which maximal melanin synthesis activity comparable to 100 nM NDP-alpha-MSH is reached” value in assay [1] is given as over 111 nM. In [2], the EC50 worked out at 7.51 nM.
As for `N=C(N)NCCC[C@H](NC(=O)[C@@H](Cc1ccccc1)NC(=O)[C@H](Cc1c[nH]cn1)NC(=O)CNC(=O)c1ccccc1)C(=O)N[C@H](Cc1ccccc1)C(N)=O` [Peptide 6] (Bz-GH[dF]R[dF]-NH2), in assay [1], the “Concentration at which maximal melanin synthesis activity comparable to 100 nM NDP-alpha-MSH is reached” value is on record as over 111 nM. Besides, the concentration giving a half-maximal response (EC50) in assay [2] was 1.79 nM.
On to `N=C(N)NCCC[C@H](NC(=O)[C@@H](Cc1ccccc1)NC(=O)[C@H](Cc1c[nH]cn1)NC(=O)CNC(=O)c1ccccc1)C(=O)N[C@H](Cc1ccc2ccccc2c1)C(N)=O` [Peptide 3] (Bz-GH[dF]R[d2Nal]-NH2), for which the “Concentration at which maximal melanin synthesis activity comparable to 100 nM NDP-alpha-MSH is reached” value in assay [1] is on record as “around 12.3 nM”. The EC50 in [2] was found to be 0.25 nM.
On to “MC1R-agonist pentapeptide 2 (Bz-Gly-His-D-Phe-Arg-L-NaphAla-NH2)”, for which the EC50 of MC1R activation (cAMP HTRF assay, CHO-K1 cells expressing human MC1R) in [3] was determined as 0.11 nM.
As for `N=C(N)NCCC[C@H](NC(=O)[C@@H](Cc1ccccc1)NC(=O)[C@H](Cc1c[nH]cn1)NC(=O)CNC(=O)c1ccccc1)C(=O)N[C@@H](Cc1c[nH]c2ccccc12)C(N)=O` [Peptide 1] (Bz-GH[dF]RW-NH2), in assay [1], the “Concentration at which maximal melanin synthesis activity comparable to 100 nM NDP-alpha-MSH is reached” value is reported as “around 12.3 nM”. The EC50 in assay [2] was 0.041 nM. For the same molecule, in [4], the “Stimulation of pigmentation compared to vehicle-treated control tissue” value is “up to 21%”.
Consider `N=C(N)NCCC[C@H](NC(=O)[C@@H](Cc1ccccc1)NC(=O)[C@H](Cc1c[nH]cn1)NC(=O)CNC(=O)c1ccccc1)C(=O)N[C@@H](Cc1ccc2ccccc2c1)C(N)=O` [Peptide 2] (Bz-GH[dF]R[2Nal]-NH2), for which the “Concentration at which maximal melanin synthesis activity comparable to 100 nM NDP-alpha-MSH is reached” value in [1] is on record as “around 12.3 nM”. In assay [2], the concentration for a half-maximal effect (EC50) turned out to be 0.11 nM.
“MC1R-agonist pentapeptide 8 (Bz-Gly-His-D-Phe-Dab-L-Trp-NH2)”: in assay [3], the EC50 of MC1R activation (cAMP HTRF assay, CHO-K1 cells expressing human MC1R) turned out to be 7.51 nM.
In the case of `CCCN(CCC)C(=O)[C@H](Cc1c[nH]c2ccccc12)NC(=O)[C@H](CCCNC(=N)N)NC(=O)[C@@H](Cc1ccccc1)NC(=O)[C@H](Cc1c[nH]cn1)NC(=O)CNC(=O)c1ccccc1` [Peptide 5] (Bz-GH[dF]RW-NPr2), the concentration giving a half-maximal response (EC50) in assay [2] is 0.88 nM.
Regarding “MC1R-agonist pentapeptide 3 (Bz-Gly-His-D-Phe-Arg-D-NaphAla-NH2)”, the EC50 of MC1R activation (cAMP HTRF assay, CHO-K1 cells expressing human MC1R) in [3] came to 0.25 nM.

B1: MC1R-agonist pentapeptide 5 (Bz-Gly-His-D-Phe-Arg-L-Trp-N(Propyl)2) (peptide)
peptide: Bz-GH[dF]RW-NPr2
SMILES: CCCN(CCC)C(=O)[C@H](Cc1c[nH]c2ccccc12)NC(=O)[C@H](CCCNC(=N)N)NC(=O)[C@@H](Cc1ccccc1)NC(=O)[C@H](Cc1c[nH]cn1)NC(=O)CNC(=O)c1ccccc1
Consider B1, for which the EC50 of MC1R activation (cAMP HTRF assay, CHO-K1 cells expressing human MC1R) in assay [3] turned out to be 0.88 nM.

B2: MC1R-agonist pentapeptide 6 (Bz-Gly-His-D-Phe-Arg-D-Phe-NH2) (peptide)
peptide: Bz-GH[dF]R[dF]-NH2
SMILES: N=C(N)NCCC[C@H](NC(=O)[C@@H](Cc1ccccc1)NC(=O)[C@H](Cc1c[nH]cn1)NC(=O)CNC(=O)c1ccccc1)C(=O)N[C@H](Cc1ccccc1)C(N)=O
B2: in assay [3], the EC50 of MC1R activation (cAMP HTRF assay, CHO-K1 cells expressing human MC1R) was 1.79 nM.

B3: MC1R-agonist pentapeptide 4 (Bz-Gly-His-D-Phe-Arg-D-Trp-N(Propyl)2) (peptide)
peptide: Bz-GH[dF]R[dW]-NPr2
SMILES: CCCN(CCC)C(=O)[C@@H](Cc1c[nH]c2ccccc12)NC(=O)[C@H](CCCNC(=N)N)NC(=O)[C@@H](Cc1ccccc1)NC(=O)[C@H](Cc1c[nH]cn1)NC(=O)CNC(=O)c1ccccc1
For the molecule B3, the EC50 of MC1R activation (cAMP HTRF assay, CHO-K1 cells expressing human MC1R) in assay [3] came out at 0.42 nM. Also, the EC50 of receptor activation (Aequorin assay, recombinant cells; eight concentrations from 0.01 to 100,000 nM) in assay [5], in [6], in assay [13] and in assay [15] was over 100000 nM throughout. In addition, the EC50 of receptor activation (GTPγ[35S] scintillation proximity assay on CHO-K1 membrane preparations; eight concentrations from 0.01 to 100,000 nM) (in the assay with Melatonin receptor MT1R; in [8]; with Melatonin receptor MT2R; in assay [10]; in [14]) was over 100000 nM in each case. Moreover, the EC50 of receptor activation (cAMP HTRF assay, CHO-K1 cells; eight concentrations from 0.01 to 100,000 nM) is over 100000 nM in assay [7], over 100000 nM in [9], 877 nM in [11] and 136 nM in [12].

B4: MC1R-agonist pentapeptide 7 (Bz-Gly-His-D-Phe-Arg-[N-(CH2-3-indolyl)Gly]-NH2) (peptide)
peptide: Bz-GH[dF]R[N(indol-3-ylmethyl)Gly]-NH2
Take B4: in [3], the EC50 of MC1R activation (cAMP HTRF assay, CHO-K1 cells expressing human MC1R) turned out to be 4.4 nM.

B5: MC1R-agonist pentapeptide 1 (Bz-Gly-His-D-Phe-Arg-L-Trp-NH2) (peptide)
peptide: Bz-GH[dF]RW-NH2
SMILES: N=C(N)NCCC[C@H](NC(=O)[C@@H](Cc1ccccc1)NC(=O)[C@H](Cc1c[nH]cn1)NC(=O)CNC(=O)c1ccccc1)C(=O)N[C@@H](Cc1c[nH]c2ccccc12)C(N)=O
B5: the EC50 of MC1R activation (cAMP HTRF assay, CHO-K1 cells expressing human MC1R) in [3] amounted to 0.041 nM.
